The test system of series [1] is Capan-1, HPAF-II, PANC-1, MS1-VEGF and HMEC-1 cells. The experiment in a line: Bevacizumab cell toxicity assay (SRB). The class given is cell-based. The note with it: 24 h exposure; media containing or free of VEGF. On the procedure: Cells were seeded at 1×10^4 cells/well in 1 ml volumes in a 48-well plate. The cells were incubated for 24 h in a 37° C. cell culture incubator set at CO2 5%. […] After 24 h of incubation the SRB assay was performed (as described in, e.g., Dandamudi et al., Biochim. Biophys. Acta 1768:427-438 (2007); Skehan et al., J. Natl. Cancer Inst. 82:1107-1112 (1990); and Kalra et al., Pharm. Res. 23:2809-2817 (2006)). Briefly, the plates were washed twice with 1 ml/well of 1×PBS. Then, […] trichloracetic acid 50% solution (TCA; […]) was added to each well and the plates were stored at 4° C. for 1 h. The plates were thoroughly washed with distilled H2O five times and then 200 μl of SRB 0.4% was added to each well The plates were stored at room temperature for 30 min and then washed 4-6 times thoroughly with acetic acid 1% to remove excess SRB and air dried. 1 ml of […] was added to each well to solubilize the SRB and fluorescence intensity was measured at excitation wavelength of 540/20 and emission wavelength of 590/20 nm using FLX 800 Fluorescence Microplate Reader (Biotech instruments Inc., Winooski, Vt.). All groups were compared with untreated cells for statistical analysis.

The next series concerns HPAF-II pancreatic tumor. The series is described as follows: In vivo therapeutic study, subcutaneous HPAF-II pancreatic tumor model, tumor volume. More on the design: species or system nude mice. The settings on record: HPAF-II tumors; injections days 1, 4, 7, 10.

We go through one substance from US20120135064A1, “CONJUGATED NANODELIVERY VEHICLES” (Northeastern University, priority 2009, published 2012).

Experimental for HPAF-II pancreatic tumor: Tumors were grown by subcutaneously injecting 2×10^6 HPAF-II cells in 0.1 ml of cell culture media. Daily tumor volume measurements were taken using an electronic digital caliper (Control Company, Friendswood, Tex.). The equation a^2×b×0.52 was used to calculate the tumor volume, where ‘a’ and ‘b’ corresponded to the longer and shorter diameters, respectively. […] Animals received injections of the various formulations when the tumors reached a size of about 150 mm^3; the untreated control group received no injections. […] Day 1 injection was 18 μg of 2-methoxyestradiol for both PCL formulations. Day 4, 7, and 10 injections corresponded to 24 μg of 2-methoxyestradiol for both formulations. […] The end of the study was three days after the fourth injection, at which point the mice were anesthetized with ketamine/xylazine.

With “bevacizumab: anti-VEGF antibody bevacizumab (Avastin, Roche)”, the “nontoxic concentration (maximum amount of antibody without altering the growth potential of the cells)” value in series [1] came out at 500 ng/mL. Also, the “earliest day at which tumor response / significant benefit was seen” value with HPAF-II pancreatic tumor stood at 3 days.
